These results are taken from patent US20260226503A1 (NORTH CAROLINA STATE UNIVERSITY, published 2026).

Where no end group is shown, it is not given here. Toyopearl AF‑Amino‑650M resin = chromatographic resin to which the peptide C-terminus is conjugated

Experiment [1] addresses AAV9 capsid (adeno-associated virus serotype 9). Briefly: bind-and-elute chromatography, pure AAV9; bound at pH 7.0, eluted with 1 M MgCl2 pH 6.0; ELISA.
Experiment [2] concerns the target T1, AAV2 capsid (adeno-associated virus serotype 2, UniProt P03135 1-735; P03135 1-598; P03135 1-533).
T1 construct: Whole assembled capsid, VP1:VP2:VP3 about 1:1:10; AF594-labelled in the library screen; GFP transgene in the lysate runs; a spherical cap of collated PDB structures in the docking; also called adeno-associated virus serotype 2
Description: dynamic binding capacity at 10% breakthrough; AAV2 in HEK293 lysate, 3.2e11 vp/mL, PBS pH 7.4, residence time 3 min.

In experiment [3] the target is T1, AAV2 capsid. Description: bind-and-elute chromatography, pure AAV2, non-competitive mode, pH 7.0; AAV titer by ELISA. (ELISA stands for enzyme-linked immunosorbent assay.)
In experiment [4] the target is T1, AAV2 capsid. Description: bind-and-elute chromatography, pure AAV2; bound at pH 7.0, eluted with 1 M MgCl2 pH 6.0; ELISA.

B1: FFNFFKG-Toyopearl resin (peptide)
peptide: FFNFFKG-{Toyopearl AF‑Amino‑650M resin}
notes: Peptide immobilised on chromatographic resin; also called W10; FFNFFK-Toyopearl
B1: the “yield (AAV titer in elution fraction vs. load)” value in experiment [1] turned out to be 72.4%. The “DBC10% (vp AAV per mL of resin)” value in experiment [2] is 1.4e+13 vp AAV per mL of resin. Moreover, the “loss (AAV titer in flow-through and wash vs. load)” value in experiment [3] is below 1.7%.

B2: KFNHWFG-Toyopearl resin (peptide)
peptide: KFNHWFG-{Toyopearl AF‑Amino‑650M resin}
notes: Peptide immobilised on chromatographic resin; also called W1; KFNHWF-Toyopearl
B2: in experiment [4], the “yield (AAV titer in elution fraction vs. load)” value was found to be 45%. In addition, in experiment [2], the “DBC10% (vp AAV per mL of resin)” value was 1.33e+13 vp AAV per mL of resin. The “loss (AAV titer in flow-through and wash vs. load)” value in experiment [3] is below 1.7%.

B3: IAFKKISIG-Toyopearl resin (peptide)
peptide: IAFKKISIG-{Toyopearl AF‑Amino‑650M resin}
notes: Peptide immobilised on chromatographic resin; also called W6
In the case of B3, the “loss (AAV titer in flow-through and wash vs. load)” value in experiment [3] is below 1.7%.

B4: WKAHNKG-Toyopearl resin (peptide)
peptide: WKAHNKG-{Toyopearl AF‑Amino‑650M resin}
notes: Peptide immobilised on chromatographic resin; also called W2
Consider B4, for which, in experiment [4], the “yield (AAV titer in elution fraction vs. load)” value came out at 79.8%. Further, in experiment [3], the “loss (AAV titer in flow-through and wash vs. load)” value was below 1.7%.

B5: KWWIWAG-Toyopearl resin (peptide)
peptide: KWWIWAG-{Toyopearl AF‑Amino‑650M resin}
notes: Peptide immobilised on chromatographic resin; also called W8
Turning to B5, the “yield (AAV titer in elution fraction vs. load)” value in experiment [1] was 57.2%. In experiment [3], the “loss (AAV titer in flow-through and wash vs. load)” value is below 1.7%.

B6: FWWAAFFKG-Toyopearl resin (peptide)
peptide: FWWAAFFKG-{Toyopearl AF‑Amino‑650M resin}
notes: Peptide immobilised on chromatographic resin; also called W5
For B6, the “yield (AAV titer in elution fraction vs. load)” value in experiment [1] was 53.7%; in experiment [4] it was 44.8%. Moreover, the “loss (AAV titer in flow-through and wash vs. load)” value in experiment [3] is below 1.7%.

B7: WWIKISG-Toyopearl resin (peptide)
peptide: WWIKISG-{Toyopearl AF‑Amino‑650M resin}
notes: Peptide immobilised on chromatographic resin; also called W9
B7: the “loss (AAV titer in flow-through and wash vs. load)” value in experiment [3] is below 1.7%.

B8: FWNWHHFKG-Toyopearl resin (peptide)
peptide: FWNWHHFKG-{Toyopearl AF‑Amino‑650M resin}
notes: Peptide immobilised on chromatographic resin; also called W4
B8: the “yield (AAV titer in elution fraction vs. load)” value in experiment [1] was 43.9%. Further, in experiment [2], the “DBC10% (vp AAV per mL of resin)” value is 8.75e+12 vp AAV per mL of resin. Further, in experiment [3], the “loss (AAV titer in flow-through and wash vs. load)” value was below 1.7%.

B9: FNHFFIG-Toyopearl resin (peptide)
peptide: FNHFFIG-{Toyopearl AF‑Amino‑650M resin}
notes: Peptide immobilised on chromatographic resin; also called W11
Consider B9, for which the “loss (AAV titer in flow-through and wash vs. load)” value in experiment [3] is below 1.7%.

B10: IKIFFFFSG-Toyopearl resin (peptide)
peptide: IKIFFFFSG-{Toyopearl AF‑Amino‑650M resin}
notes: Peptide immobilised on chromatographic resin; also called W7
For B10, the “DBC10% (vp AAV per mL of resin)” value in experiment [2] was 1.02e+13 vp AAV per mL of resin. For the same molecule, in experiment [3], the “loss (AAV titer in flow-through and wash vs. load)” value was below 1.7%.

B11: IWWHIAKFG-Toyopearl resin (peptide)
peptide: IWWHIAKFG-{Toyopearl AF‑Amino‑650M resin}
notes: Peptide immobilised on chromatographic resin; also called W3
In the case of B11, the “yield (AAV titer in elution fraction vs. load)” value in experiment [1] came out at 61.7%; in experiment [4] it was 54.9%. Moreover, the “DBC10% (vp AAV per mL of resin)” value in experiment [2] was 9.53e+12 vp AAV per mL of resin. Further, in experiment [3], the “loss (AAV titer in flow-through and wash vs. load)” value is below 1.7%.
